Measured values from the supplement of paper PMC11908140.

B1: library; numbered along this chain (parent)
chain: MRKPRAAVGSGHRKQAASQEGRQKHAKNNSQAKPSACDGLARQPEEVVLQASVSSYHLFRDVAEVTAFRGSLLSWYDQEKRDLPWRRRAEDEMDLDRRAYAVWVSEVMLQQTQVATVINYYTGWMQKWPTLQDLASASLEEVNQLWAGLGYYSRGRRLQEGARKVVEELGGHMPRTAETLQQLLPGVGRYTAGAIASIAFGQATGVVDGNVARVLCRVRAIGADPSSTLVSQQLWGLAQQLVDPARPGDFNQAAMELGATVCTPQRPLCSQCPVESLCRARQRVEQEQLLASGSLSGSPDVEECAPNTGQCHLCLPPSEPWDQTLGVVNFPRKASRKPPREESSATCVLEQPGALGAQILLVQRPNSGLLAGLWEFPSVTWEPSEQLQRKALLQELQRWAGPLPATHLRHLGEVVHTFSHIKLTYQVYGLALEGQTPVTTVPPGARWLTQEEFHTAAVSTAMKKVFRVYQGQQPGTCMGSKRSQVSSPCSRKKPRMGQQVLDNFFRSHISTDAHSLNSAAQ

Variants of: B1
Assay: 8OG:A repair function score (normalized; synonymous = 0, nonsense = -1) (normalized log-likelihood score); higher = more repair activity (WT-like)
Details: with 8OG:A DNA repair reporter (GFP) in HEK-293 MUTYH KO cells
Summary of the method: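 With 10 pg/ml doxycycline, MUTYH knockout HEK-293 cells carrying lentiviral MUTYH cDNA NNN codon-scan libraries were co-transfected with mCherry and an 8OG:A GFP repair reporter. Viable mCherry+ cells were sorted into GFP+ (repair) and GFP− bins at 72 h, three replicates per tile, and tile amplicons were sequenced. Per-tile Rosace fitness scores were then normalized into a repair function score anchored on synonymous and nonsense distributions. Medians were fixed at 0 for synonymous and -1 for nonsense, excluding variants under 300 counts per million at the start.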

First: MRKPRAAVGSGHRKQAASQEGRQKHAKNNSQAKPSACDGLARQPEEVVLQASVSSYHLFRDVAEVTAFRGSLLSWYDQEKRDLPWRRRAEDEMDLDRRAYAVWVSEVMLQQTQVATVINYYTGWMQKWPTLQDLASASLEEVNQLWAGLGYYSRGRRLQEGARKVVEELGGHCPRTAETLQQLLPGVGRYTAGAIASIAFGQATGVVDGNVARVLCRVRAIGADPSSTLVSQQLWGLAQQLVDPARPGDFNQAAMELGATVCTPQRPLCSQCPVESLCRARQRVEQEQLLASGSLSGSPDVEECAPNTGQCHLCLPPSEPWDQTLGVVNFPRKASRKPPREESSATCVLEQPGALGAQILLVQRPNSGLLAGLWEFPSVTWEPSEQLQRKALLQELQRWAGPLPATHLRHLGEVVHTFSHIKLTYQVYGLALEGQTPVTTVPPGARWLTQEEFHTAAVSTAMKKVFRVYQGQQPGTCMGSKRSQVSSPCSRKKPRMGQQVLDNFFRSHISTDAHSLNSAAQ [M173C]
Second: MRKPRAAVGSGHRKQAASQEGRQKHAKNNSQAKPSACDGLARQPEEVVLQASVSSYHLFRDVAEVTAFRGSLLSWYDQEKRDLPWRRRAEDEMDLDRRAYAVWVSEVMLQQTQVATVINYYTGWMQKWPTLQDLASASLEEVNQLWAGLGYYSRGRRLQEGARKVVEELGGHIPRTAETLQQLLPGVGRYTAGAIASIAFGQATGVVDGNVARVLCRVRAIGADPSSTLVSQQLWGLAQQLVDPARPGDFNQAAMELGATVCTPQRPLCSQCPVESLCRARQRVEQEQLLASGSLSGSPDVEECAPNTGQCHLCLPPSEPWDQTLGVVNFPRKASRKPPREESSATCVLEQPGALGAQILLVQRPNSGLLAGLWEFPSVTWEPSEQLQRKALLQELQRWAGPLPATHLRHLGEVVHTFSHIKLTYQVYGLALEGQTPVTTVPPGARWLTQEEFHTAAVSTAMKKVFRVYQGQQPGTCMGSKRSQVSSPCSRKKPRMGQQVLDNFFRSHISTDAHSLNSAAQ [M173I]
The “8OG:A repair function score” value of the first is lower: -0.257 for the first, 0.0625 for the second.

Going from MRKPRAAVGSGHRKQAASQEGRQKHAKNNSQAKPSACDGLARQPEEVVLQASVSSYHLFRDVAEVTAFRGSLLSWYDQEKRDLPWRRRAEDEMDLDRRAYAVWVSEVMLQQTQVATVINYYTGWMQKWPTLQDLASASLEEVNQLWAGLGYYSRGRRLQEGARKVVEELGGHHPRTAETLQQLLPGVGRYTAGAIASIAFGQATGVVDGNVARVLCRVRAIGADPSSTLVSQQLWGLAQQLVDPARPGDFNQAAMELGATVCTPQRPLCSQCPVESLCRARQRVEQEQLLASGSLSGSPDVEECAPNTGQCHLCLPPSEPWDQTLGVVNFPRKASRKPPREESSATCVLEQPGALGAQILLVQRPNSGLLAGLWEFPSVTWEPSEQLQRKALLQELQRWAGPLPATHLRHLGEVVHTFSHIKLTYQVYGLALEGQTPVTTVPPGARWLTQEEFHTAAVSTAMKKVFRVYQGQQPGTCMGSKRSQVSSPCSRKKPRMGQQVLDNFFRSHISTDAHSLNSAAQ [M173H] to MRKPRAAVGSGHRKQAASQEGRQKHAKNNSQAKPSACDGLARQPEEVVLQASVSSYHLFRDVAEVTAFRGSLLSWYDQEKRDLPWRRRAEDEMDLDRRAYAVWVSEVMLQQTQVATVINYYTGWMQKWPTLQDLASASLEEVNQLWAGLGYYSRGRRLQEGARKVVEELGGHQPRTAETLQQLLPGVGRYTAGAIASIAFGQATGVVDGNVARVLCRVRAIGADPSSTLVSQQLWGLAQQLVDPARPGDFNQAAMELGATVCTPQRPLCSQCPVESLCRARQRVEQEQLLASGSLSGSPDVEECAPNTGQCHLCLPPSEPWDQTLGVVNFPRKASRKPPREESSATCVLEQPGALGAQILLVQRPNSGLLAGLWEFPSVTWEPSEQLQRKALLQELQRWAGPLPATHLRHLGEVVHTFSHIKLTYQVYGLALEGQTPVTTVPPGARWLTQEEFHTAAVSTAMKKVFRVYQGQQPGTCMGSKRSQVSSPCSRKKPRMGQQVLDNFFRSHISTDAHSLNSAAQ [M173Q], the “8OG:A repair function score” value falls from -0.672 to -0.93.

Compared with MRKPRAAVGSGHRKQAASQEGRQKHAKNNSQAKPSACDGLARQPEEVVLQASVSSYHLFRDVAEVTAFRGSLLSWYDQEKRDLPWRRRAEDEMDLDRRAYAVWVSEVMLQQTQVATVINYYTGWMQKWPTLQDLASASLEEVNQLWAGLGYYSRGRRLQEGARKVVEELGGHGPRTAETLQQLLPGVGRYTAGAIASIAFGQATGVVDGNVARVLCRVRAIGADPSSTLVSQQLWGLAQQLVDPARPGDFNQAAMELGATVCTPQRPLCSQCPVESLCRARQRVEQEQLLASGSLSGSPDVEECAPNTGQCHLCLPPSEPWDQTLGVVNFPRKASRKPPREESSATCVLEQPGALGAQILLVQRPNSGLLAGLWEFPSVTWEPSEQLQRKALLQELQRWAGPLPATHLRHLGEVVHTFSHIKLTYQVYGLALEGQTPVTTVPPGARWLTQEEFHTAAVSTAMKKVFRVYQGQQPGTCMGSKRSQVSSPCSRKKPRMGQQVLDNFFRSHISTDAHSLNSAAQ [M173G], MRKPRAAVGSGHRKQAASQEGRQKHAKNNSQAKPSACDGLARQPEEVVLQASVSSYHLFRDVAEVTAFRGSLLSWYDQEKRDLPWRRRAEDEMDLDRRAYAVWVSEVMLQQTQVATVINYYTGWMQKWPTLQDLASASLEEVNQLWAGLGYYSRGRRLQEGARKVVEELGGHEPRTAETLQQLLPGVGRYTAGAIASIAFGQATGVVDGNVARVLCRVRAIGADPSSTLVSQQLWGLAQQLVDPARPGDFNQAAMELGATVCTPQRPLCSQCPVESLCRARQRVEQEQLLASGSLSGSPDVEECAPNTGQCHLCLPPSEPWDQTLGVVNFPRKASRKPPREESSATCVLEQPGALGAQILLVQRPNSGLLAGLWEFPSVTWEPSEQLQRKALLQELQRWAGPLPATHLRHLGEVVHTFSHIKLTYQVYGLALEGQTPVTTVPPGARWLTQEEFHTAAVSTAMKKVFRVYQGQQPGTCMGSKRSQVSSPCSRKKPRMGQQVLDNFFRSHISTDAHSLNSAAQ [M173E] is lower in “8OG:A repair function score” value: -0.965 for the first, -1.13 for the second.
